Residue numbers refer to the chain shown, from its start. Numbers in names are those of the source.
B1: FasL (protein, UniProt P48023 130-281, looked up)
Tumor necrosis factor ligand …: QIGHPSPPPEKKELRKVAHLTGKSNSRSMPLEWEDTYGIVLLSGVKYKKGGLVINETGLYFVYSKVYFRGQSCNNLPLSHKVYMRNSKYPQDLVMMEGKMMSYCTTGQMWARSSYLGAVFNLTSADHLYVNVSELSLVNFEESQTFFGLYKL
notes: wild-type FasL ligand used as comparator
B2: FasL (P206R) (protein, UniProt P48023 130-281, looked up, variant P206R)
Tumor necrosis factor ligand …: B1 Tumor necrosis factor ligand … with P77R
B3: conjugate: mutated FasL (P206R) conjugated to mouse monoclonal anti-CD20 antibody with SMCC (conjugate, UniProt P48023 130-281, looked up, variant P206R)
Tumor necrosis factor ligand …: B1 Tumor necrosis factor ligand … with P77R
modifications: conjugated via SMCC to mouse anti-CD20 antibody

The molecules below were run on Burkitt lymphoma cells (assay: Dose response of FasL ligands on Burkitt lymphoma cells). Conditions: dose response over 1 μM to 1 nM, 96 well plate.
Assay type: cell-based
Method: Dose response over a range of 1 μM to 1 nM is determined for each of the ligands.
With B1 the “rank order of effectiveness” value was “rank order of effectiveness is wild-type, conjugate and mutated FasL”.
B2 was tested, and the “rank order of effectiveness” value was “rank order of effectiveness is wild-type, conjugate and mutated FasL”.
In the case of B3, the “rank order of effectiveness” value is reported as “rank order of effectiveness is wild-type, conjugate and mutated FasL”.
